{
  "source": "paper PMC7823470",
  "about": "“Arabidopsis Plant Natriuretic Peptide Is a Novel Interactor of Rubisco Activase” (Life, 2020)",
  "molecules": {"B1": {"name": "pAtPNP-A, N-terminally biotinylated AtPNP-A(33–66) peptide containing the active region of AtPNP-A (peptide, UniProt Q9ZV52 33-66, looked up)", "peptide": "Biotin-YDPPYTRSACYGTQRETLVVGVKNNLWQNGRACG", "modifications": "disulfide 10-33 (inferred)", "notes": "AtPNP-A (plant natriuretic peptide A), A. thaliana, At2g18660, residues 33-66 (active region); Peptides were bought with or without the N-terminal biotin tag; also called biologically active fragment of AtPNP-A; source: synthetic peptide, bought: GenScript (purity at least 95%, HPLC)"}, "B2": {"name": "rAtPNP-A: purified N-terminally His-tagged AtPNP-A protein (protein)", "chain": "AQGKAVYYDPPYTRSACYGTQRETLVVGVKNNLWQNGRACGRRYRVRCIGATYNFDRACTGRTVDVKVVDFCREPCNGDLNLSRDAFRVIANTDAGNIRVVYTPI", "modifications": "left off: His6, N-terminal, kept", "notes": "purified N-terminally His-tagged AtPNP-A protein"}},
  "key": {"[1]": {"target": "T1, recombinant RCA (rRCA) (Arabidopsis thaliana, UniProt P10896)", "T1 construct": "made in house; host or cells: E. coli BL21 (DE3) One Shot", "experiment": "biochemical", "format": "binding", "procedure": "(§1) SPR experiments were performed at 20 °C on a Biacore T100 instrument (GE Healthcare LifeSciences) with the use of Series S CM5 […] sensor chips as previously described. Data were acquired with Biacore T100 control software (version 2.0.2, GE Healthcare LifeSciences, Chicago, IL, USA). Kinetic analyses were performed at the flow of 100 μL min^−1 with pAtPNP-A (at 3.78 μM and consecutive two-fold dilutions; 11 injections included) […], whereas recombinant His-tagged RCA was used as […] immobilized on the active surface of the series S CM5 sensor chip with amine coupling kit. The surface was regenerated with glycine solution, pH 2.0 (GE Healthcare LifeSciences). The final sensorgram was generated with Scrubber (BioLogic Software Pty Ltd., Campbell, Australia).\nIn both analyses the ligand was immobilized at the same levels, analytes were injected at the same concentration and conditions of runs kept constant."}, "[2]": {"target": "T2, purified recombinant N-terminally His-tagged rubisco activase (rRCA) (Arabidopsis thaliana, UniProt P10896 59-474)", "T2 construct": "Rubisco activase (RCA), A. thaliana, At2g39730; also called recombinant RCA; source: E. coli BL21 (DE3) One Shot, purified (Ni-NTA beads, HisTrap HP column); not shown: His6, N-terminal, kept", "T2 sequence (looked up)": "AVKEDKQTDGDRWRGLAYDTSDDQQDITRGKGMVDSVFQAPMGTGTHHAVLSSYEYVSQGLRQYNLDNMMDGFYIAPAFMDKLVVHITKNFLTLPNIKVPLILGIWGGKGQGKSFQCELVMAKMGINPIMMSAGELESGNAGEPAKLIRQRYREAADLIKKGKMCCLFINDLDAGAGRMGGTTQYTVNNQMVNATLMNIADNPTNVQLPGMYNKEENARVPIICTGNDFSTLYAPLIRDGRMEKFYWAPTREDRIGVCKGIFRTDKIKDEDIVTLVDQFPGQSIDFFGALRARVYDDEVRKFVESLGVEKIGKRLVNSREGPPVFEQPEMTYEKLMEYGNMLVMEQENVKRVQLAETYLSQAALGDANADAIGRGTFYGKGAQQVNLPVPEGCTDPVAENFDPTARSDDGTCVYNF", "experiment": "SPR; kinetic analysis: His-tagged rRCA immobilised by amine coupling on a Series S CM5 chip, pAtPNP-A injected at 3.78 μM and consecutive two-fold dilutions (11 injections), flow 100 μL/min, regeneration with glycine pH 2.0; Biacore T100, 20 °C", "conditions": "both partners purified"}, "[3]": {"target": "T2, purified recombinant N-terminally …", "experiment": "SPR; kinetic analysis: His-tagged rRCA immobilised by amine coupling on a Series S CM5 chip, pAtPNP-A injected at 3.78 μM and consecutive two-fold dilutions (11 injections), flow 100 μL/min, regeneration with glycine pH 2.0; Biacore T100, 20 °C", "conditions": "both partners purified", "remark": "listed apart in the source"}, "[4]": {"system": "A. thaliana (Col-0) mesophyll cell protoplasts", "experiment": "Mesophyll cell protoplast (MCP) volume assay", "format": "cell-based, Arabidopsis thaliana", "conditions": "MCPs in 0.4 M mannitol, 20 min; 100 nM peptide or 1 μg mL^−1 rAtPNP-A; confocal microscopy, n = 50", "text": "Figure 1 Biologically active peptide containing the active region of AtPNP-A binds to RCA. (a) Schematics showing domain organization of AtPNP-A and the amino acid sequence of N-terminally biotinylated peptides used in the affinity-based experiments. pAtPNP-A—a peptide containing the active site of AtPNP-A; pScr—the corresponding scrambled peptide; SP—signal peptide. Cysteine residues forming a disulfide bond are underlined. (b) Assaying biological activity of the pAtPNP-A and purified recombinant AtPNP-A (rAtPNP-A). A. thaliana (Col-0) mesophyll cell protoplasts suspended in 0.4 M mannitol were treated with either water, or 100 nM pScr (negative control), or with 100 nM pAtPNP-A, or with 1 μg mL^−1 of rAtPNP-A protein for 20 min at room temperature. In each treatment, 50 randomly selected protoplasts with diameter >20 μm were included in quantitative analysis (scale bar = 20 μm). Protoplast volume was measured, and the data obtained from an exemplar experiment are plotted. […]\nBiological activity of the synthetic peptides was verified in mesophyll cell protoplast (MCP) volume assay. […] Data are expressed as mean ± SD, and statistical analyses of one-way ANOVA followed by Tukey-Kramer multiple comparison test were performed using Prism 8.0 (GraphPad Software, San Diego, CA, USA)."}, "[5]": {"target": "T3, recombinant RCA (rRCA) (Arabidopsis thaliana, UniProt P10896)", "T3 construct": "made in house; host or cells: E. coli BL21 (DE3) One Shot", "T3 sequence (P10896 whole entry, looked up)": "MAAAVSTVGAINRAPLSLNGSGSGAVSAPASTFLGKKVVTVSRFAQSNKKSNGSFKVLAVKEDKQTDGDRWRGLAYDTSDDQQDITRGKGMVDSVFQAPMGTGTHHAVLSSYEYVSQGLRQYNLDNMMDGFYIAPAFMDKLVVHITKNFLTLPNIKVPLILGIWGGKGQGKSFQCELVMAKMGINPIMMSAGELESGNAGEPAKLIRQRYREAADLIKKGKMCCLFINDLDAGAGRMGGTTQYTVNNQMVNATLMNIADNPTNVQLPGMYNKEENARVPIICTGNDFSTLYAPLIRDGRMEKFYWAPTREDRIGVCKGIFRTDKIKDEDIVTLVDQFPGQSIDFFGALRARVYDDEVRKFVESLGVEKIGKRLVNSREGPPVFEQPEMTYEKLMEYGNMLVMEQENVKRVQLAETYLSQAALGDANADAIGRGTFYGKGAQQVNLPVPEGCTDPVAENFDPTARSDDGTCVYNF", "experiment": "SPR, rAtPNP-A analyte over immobilized rRCA (CM5 chip)", "format": "binding", "conditions": "for SPR binding to rRCA: rRCA amine-coupled on CM5 chip, rAtPNP-A as analyte, 20 °C, Biacore T100", "procedure": "as §1\nFigure 2 AtPNP-A directly interacts with Arabidopsis RCA in vitro. (a) Molecular docking of AtPNP-A and RCA monomer. Surface model depicts predicted docking of AtPNP-A (blue), with its active region (cyan), and RCA (tan). The structure of AtPNP-A was predicted using the iterative threading assembly refinement (I-TASSER; version 5.1) method, while the 4W5W crystal structure of A. thaliana RCA [33] was derived from RCSB PDB. Protein—protein docking was performed using ClusPro). The models were analyzed and visualized using UCSF Chimera (version 1.10.2). (b) Recombinant protein preparations used in SPR analyses. (c) Exemplar sensorgrams depicting referenced binding response of the recombinant RCA and AtPNP-A proteins."}},
  "note": "“Also recorded” adds a separate entry of the source. Bridge positions count the residues as written; N and C are the ends. Ends that are not written are not given here. Peptide text beside a SMILES is read from it. * marks the point of attachment. Biotin = O=C1N[C@H]2[C@H](CS[C@H]2CCCCC(=O)*)N1",
  "data": [
    {"molecule": "CC(C)C[C@@H]1NC(=O)[C@H](CC(N)=O)NC(=O)[C@H](CC(N)=O)NC(=O)[C@H](CCCCN)NC(=O)[C@H](C(C)C)NC(=O)CNC(=O)[C@H](C(C)C)NC(=O)[C@H](C(C)C)NC(=O)[C@H](CC(C)C)NC(=O)[C@H]([C@@H](C)O)NC(=O)[C@H](CCC(=O)O)NC(=O)[C@H](CCCNC(=N)N)NC(=O)[C@H](CCC(N)=O)NC(=O)[C@H]([C@@H](C)O)NC(=O)CNC(=O)[C@H](Cc2ccc(O)cc2)NC(=O)[C@@H](NC(=O)[C@H](C)NC(=O)[C@H](CO)NC(=O)[C@H](CCCNC(=N)N)NC(=O)[C@@H](NC(=O)[C@H](Cc2ccc(O)cc2)NC(=O)[C@@H]2CCCN2C(=O)[C@@H]2CCCN2C(=O)[C@H](CC(=O)O)NC(=O)[C@H](Cc2ccc(O)cc2)NC(=O)[C@H](Cc2ccc(O)cc2)NC(=O)[C@@H](NC(=O)[C@H](C)NC(=O)CCCC[C@@H]2SC[C@@H]3NC(=O)N[C@@H]32)C(C)C)[C@@H](C)O)CSSC[C@@H](C(=O)NCC(=O)N[C@@H](CCCNC(=N)N)C(=O)N[C@@H](CCCNC(=N)N)C(=O)N[C@@H](Cc2ccc(O)cc2)C(=O)O)NC(=O)[C@H](C)NC(=O)[C@H](CCCNC(=N)N)NC(=O)CNC(=O)[C@H](CC(N)=O)NC(=O)[C@H](CCC(N)=O)NC(=O)[C@H](Cc2c[nH]c3ccccc23)NC1=O", "note": "[pAtPNP-A] (Biotin-AVYYDPPYTRSACYGTQRETLVVGVKNNLWQNGRACGRRY-OH; disulfide 13-36)", "values": [
      {"measurement": "dissociation constant, range in words", "setting": "[1]", "value": "sub-micromolar range; also recorded: nanomolar range"},
      {"measurement": "kon", "setting": "[1]; read-out: ka (±SE), association rate constant", "value": 16300, "unit": "M⁻¹ s⁻¹"},
      {"measurement": "koff", "setting": "[1]; read-out: kd (±SE), dissociation rate constant", "value": 0.000852, "unit": "s⁻¹"}
    ]},
    {"molecule": "B1", "values": [
      {"measurement": "Kd", "setting": "[2]", "value": 53, "unit": "nM"},
      {"measurement": "Kd", "setting": "[3]", "value": 52.3, "unit": "nM"}
    ]},
    {"molecule": "B2", "values": [
      {"measurement": "Effect on protoplast volume", "setting": "[4]", "value": "protoplast volume increase"},
      {"measurement": "SPR binding to RCA (abstract, in words)", "setting": "[5]; full-length recombinant AtPNP-A, SPR", "value": "bind specifically to RCA"},
      {"measurement": "SPR binding to rRCA", "setting": "[5]", "value": "bound to the rRCA protein immobilized on the active surface"},
      {"measurement": "SPR binding to rRCA", "setting": "[5]; listed as recombinant AtPNP-A", "value": "confirmed by us in vitro"}
    ]}
  ]
}
